Test results taken from article PMC2857095 (The Journal of Biological Chemistry, 2010).

Target: T1, DNA mismatch repair protein MutS, wild type (E. coli, UniProt P23909 1-853)
T1 sequence (looked up): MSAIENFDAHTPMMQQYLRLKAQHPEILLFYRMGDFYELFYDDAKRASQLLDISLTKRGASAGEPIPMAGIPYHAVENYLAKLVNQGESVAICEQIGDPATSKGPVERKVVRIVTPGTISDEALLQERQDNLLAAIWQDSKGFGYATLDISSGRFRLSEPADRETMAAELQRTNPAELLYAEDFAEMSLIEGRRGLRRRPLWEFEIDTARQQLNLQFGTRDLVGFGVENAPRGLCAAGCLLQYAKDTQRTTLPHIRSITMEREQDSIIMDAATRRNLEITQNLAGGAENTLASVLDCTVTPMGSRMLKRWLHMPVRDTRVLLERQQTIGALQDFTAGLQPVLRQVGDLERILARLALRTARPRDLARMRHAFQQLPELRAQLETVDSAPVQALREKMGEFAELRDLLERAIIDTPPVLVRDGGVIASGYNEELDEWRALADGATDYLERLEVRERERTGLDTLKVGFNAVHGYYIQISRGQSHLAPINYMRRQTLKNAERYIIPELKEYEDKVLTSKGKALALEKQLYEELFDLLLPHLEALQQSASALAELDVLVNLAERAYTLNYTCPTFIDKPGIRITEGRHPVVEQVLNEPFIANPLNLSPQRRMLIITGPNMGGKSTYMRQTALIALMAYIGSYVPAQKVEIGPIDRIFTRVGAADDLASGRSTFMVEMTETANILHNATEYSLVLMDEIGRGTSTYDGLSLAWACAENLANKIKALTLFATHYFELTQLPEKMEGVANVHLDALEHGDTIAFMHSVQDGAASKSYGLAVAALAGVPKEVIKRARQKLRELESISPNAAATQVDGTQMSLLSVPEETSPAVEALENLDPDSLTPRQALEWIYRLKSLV
Experiment: SPR

binding result: binds
B1: MutL (natural protein, UniProt P23367 1-615, looked up)
chain: MPIQVLPPQLANQIAAGEVVERPASVVKELVENSLDAGATRIDIDIERGGAKLIRIRDNGCGIKKDELALALARHATSKIASLDDLEAIISLGFRGEALASISSVSRLTLTSRTAEQQEAWQAYAEGRDMNVTVKPAAHPVGTTLEVLDLFYNTPARRKFLRTEKTEFNHIDEIIRRIALARFDVTINLSHNGKIVRQYRAVPEGGQKERRLGAICGTAFLEQALAIEWQHGDLTLRGWVADPNHTTPALAEIQYCYVNGRMMRDRLINHAIRQACEDKLGADQQPAFVLYLEIDPHQVDVNVHPAKHEVRFHQSRLVHDFIYQGVLSVLQQQLETPLPLDDEPQPAPRSIPENRVAAGRNHFAEPAAREPVAPRYTPAPASGSRPAAPWPNAQPGYQKQQGEVYRQLLQTPAPMQKLKAPEPQEPALAANSQSFGRVLTIVHSDCALLERDGNISLLSLPVAERWLRQAQLTPGEAPVCAQPLLIPLRLKVSAEEKSALEKAQSALAELGIDFQSDAQHVTIRAVPLPLRQQNLQILIPELIGYLAKQSVFEPGNIAQWIARNLMSEHAQWSMAQAITLLADVERLCPQLVKTPPGGLLQSVDLHPAIKALKDE
